The target in the assay is Murine PD-L1 (murine) (UniProt Q9EP73).
UniProt Q9EP73, sequence (Q9EP73 19-290): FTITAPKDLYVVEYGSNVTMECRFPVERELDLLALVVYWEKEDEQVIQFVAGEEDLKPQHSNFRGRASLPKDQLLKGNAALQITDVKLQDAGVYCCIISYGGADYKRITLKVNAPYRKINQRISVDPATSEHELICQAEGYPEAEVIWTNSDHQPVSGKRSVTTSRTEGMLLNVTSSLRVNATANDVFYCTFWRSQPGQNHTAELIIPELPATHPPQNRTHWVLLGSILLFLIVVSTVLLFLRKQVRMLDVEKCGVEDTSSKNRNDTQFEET

Take PD-1-CD28 fusion receptor: the T cell-induced lysis of EG7-PD-L1 target cells in co-culture with PD-1-CD28 fusion receptor transduced OVA-specific CD8+ T cells amounted to 3 fold.

The record behind these values is publication PMC5374589.
